For the experiment, the target named is SARS-CoV-2 spike protein, wild type, on live virus (SARS-CoV-2-mNG / USA-WA1/2020) (SARS-CoV-2) (UniProt P0DTC2). The experiment is described as follows: cell-based or functional assay.

The substance “IgG antibody carrying the VH and VL regions of Sotrovimab (S309)” had a Neutralization EC50 of 0.17 µg/mL.
